Assay results reported in patent US20240033374A1, “Nano-structural Protein Degradation Tool, Use, and Preparation Method thereof, and Lipid-based Protein Degradation Tool, Use, and Preparation Method thereof” (HENAN UNIVERSITY, priority 2022, published 2024).

What was measured:
EGFR [1] = target: T1, EGFR (Homo sapiens, UniProt P00533); experiment: EGFR protein degradation in cells, protein electrophoresis (Western blot); type: cell-based
T1 construct: can degrade the membrane receptor protein EGFR in various tumor cells; endogenous in cells; host or cells: MDA-MB-231 (M231), HeLa, U87
Protocol: In the above, the NP group refers to nanoparticles not linked with the POI recognition groups in the example. In all the examples involving multi-concentration test, the control group for POI recognition group and the control group for lipid hybrid substance were treated with the molar concentration equal to the highest concentration in concentration test group. All the protein electropherograms take GAPDH or VIN (vinculin) as internal reference.

EGFR [2] = target: T1, EGFR; experiment: EGFR on cell surfaces, immunofluorescent staining and confocal microscopy, M231 cells; type: cell-based; details: 500 nM antibodies, 24 hours
[3] = Acute toxicity, blood parameters of liver and kidney function after a single administration; type: in vivo, mice; details: 10 mg/kg via tail vein, blood 12 hours after injection
Protocol: In the present example, acute hepatotoxicity on mice by the NTZ-NP nano-structural protein degradation tool was studied. The nanoparticles, the solvent PBS control, NTZ antibodies of equal molar quantity, and NP of equal molar quantity without NTZ antibodies (10 mg/kg) were injected into mice via tail vein, blood was taken 12 hours after injection, and blood biochemical indicators were detected by a kit.

EGFP-labeled fused EGFR = target: T2, EGFP-labeled fused EGFR (Homo sapiens, UniProt P00533); experiment: Live-cell confocal imaging of EGFP-fused EGFR in M231 cells; type: cell-based; details: M231 living cells, fixed visual field, photographed continuously
T2 construct: expressed in transfected cells; host or cells: MDA-MB-231 (M231)

[4] = Dynamic light scattering particle size and PDI; type: physicochemical
From the text: FIG. 68 is a structural schematic diagram of CTX-RBCmD. FIG. 69 is a diagram of DLS particle size distribution results.

HepG2 cells = experiment: CCK8 cell viability assay; type: cell-based, human; details: 500 nM antibody, 24 h, p<0.001
human glioma in situ = experiment: In situ glioma model, immunohistochemical detection of EGFR and PCNA; type: in vivo, nude mice; details: 10 mg/kg intravenous, every other day, 5 times
Protocol: The administration was performed once every other day, 5 times in total, and after the administration cycle was completed, the mice were euthanized the next day, the brain tissues were taken and paraffin-embedded, and sectioned for immunohistochemical staining to study the protein degradation effect of NTZ on target protein EGFR and the tumor inhibition by detecting the tumor proliferation marker PCNA.

β-amyloid 1-42 oligomer = target: T3, β-amyloid 1-42 oligomer (Homo sapiens, UniProt P05067); experiment: Endocytosis of FITC-labeled β-amyloid 1-42 oligomer in human glial cells, confocal microscope; type: cell-based; details: 10 μM, 12 hours
T3 construct: oligomers prepared from FITC green dye-labeled β-amyloid 1-42 polypeptide; host or cells: exogenous peptide added to human glial cells
Protocol: 1 μM FITC fluorescein-labeled 5 μM β-amyloid oligomer and AB-NP were co-cultured in human glial cells for 4 hours, subsequently extracellular solution was washed away with PBS. […] The lysosome theoretically can degrade β-amyloid so as to eliminate toxicity brought about by β-amyloid extracellular accumulation. (3) β-amyloid hijack experiment: 10 μM oligomers prepared from FITC green dye-labeled 3-amyloid 1-42 peptide and 10 μM AV45-NP were co-incubated, then, the treated residue not entering the cell was washed off with PBS, followed by confocal microscope imaging, to detect green fluorescence of the β-amyloid 1-42 oligomers. […] The lysosomal dye lysoTracker was used to label the lysosome. […] 10 μM AV-45 or AV45-NP and 10 μM FITC green fluorescence dye-labeled β-amyloid oligomers were co-incubated in culture medium and treated human glial cells for 12 hours.

PD-1 receptor protein = target: T4, PD-1 receptor protein (Homo sapiens, UniProt Q15116); experiment: PD-1 expression in JURKAT cells overexpressing PD-1, protein electrophoresis; type: cell-based; details: JURKAT cells overexpressing PD-1, 500 nM, 24 h
T4 construct: expressed in transfected cells; host or cells: JURKAT cells overexpressing PD-1

[5] = M231 cells, 500 nM, fresh medium without treatment from the 24th hour

T3 sequence (P05067 672-713 limits assumed): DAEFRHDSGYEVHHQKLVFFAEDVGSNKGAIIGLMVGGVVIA
T4 sequence (Q15116 25-288): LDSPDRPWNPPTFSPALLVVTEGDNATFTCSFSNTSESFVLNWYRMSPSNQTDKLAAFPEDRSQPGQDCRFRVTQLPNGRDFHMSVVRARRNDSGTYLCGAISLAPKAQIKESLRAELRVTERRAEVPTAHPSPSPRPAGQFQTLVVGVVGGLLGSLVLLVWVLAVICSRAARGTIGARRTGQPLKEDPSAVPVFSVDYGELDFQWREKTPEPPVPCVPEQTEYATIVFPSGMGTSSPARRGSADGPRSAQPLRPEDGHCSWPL
Protocol for M231 tumor: Administration every other day (15 mg/kg) was started on day 10 of inoculation of M231 tumor in female nude mice at 6-8 weeks of age, and a volume of the tumor (tumor length: a and width: b, volume calculation formula: ½ab^2) of the mice and body weight change were continuously monitored. After two weeks of administration, 7 times in total, the mice were euthanized the next day after the last administration, tumor tissues were isolated, and the tumor tissues were subjected to protein electrophoresis and immunofluorescence detection.
In the above, after being isolated, the tumor tissues were paraffin-embedded and sectioned, followed by immunofluorescence staining, and immunofluorescence staining results of EGFR and apoptotic core signal cleaved caspase-3 were detected.

## NTZ-LNP2: NTZ-PEG-DMG with HSPC + cholesterol + DOTAP lipid nanoparticle
EGFR [1]; M231 cells, 24 h, concentration not given
  EGFR protein expression (protein electrophoresis): can effectively degrade the target protein EGFR

## NTZ-PEGlipo: NTZ antibody coupled to NHS-PEG liposomes (HSPC + cholesterol)
EGFR [1]; M231 cells, 500 nM, 24 h
  EGFR protein level / expression (protein electrophoresis): can effectively degrade the target protein EGFR

## NTZ-NP: PLGA nanoparticle core, PEG-DSPE intermediate layer, NTZ antibodies at periphery
EGFR [2]
  EGFR expression on cell surfaces (immunofluorescence): remarkably decreased
[3]
  blood parameters BUN, UA, CR, ALB, ALP, ALT, AST: no obvious abnormality
M231 tumor; 15 mg/kg every other day, 7 times, five mice, p<0.05
  EGFR protein expression level in isolated tumor tissues (protein electrophoresis): significantly down-regulated
M231 tumor; 15 mg/kg every other day, 7 times, versus PBS, equal molar NTZ antibody and antibody-free nanoparticle groups
  tumor volume proliferation: obviously inhibited
M231 tumor; after treatment completed
  EGFR signal in tumor tissues (immunofluorescence staining): EGFR signal is reduced
  apoptotic signal cleaved caspase-3 in tumor tissues (immunofluorescence staining): apoptotic signal rises
EGFR [1]; HeLa cells, 500 nM, 24 h
  EGFR expression (protein electrophoresis): obvious decreases in EGFR expression
EGFR [1]; M231 cells, 500 nM, 24 h
  EGFR protein level / expression (protein electrophoresis): obvious decreases in EGFR expression
EGFR [1]; [5]
  EGFR gradually recovered after: > 72 h
  optimal degradation time for a single treatment: 24 to 48 h
EGFR [1]; M231 cells, 24 h
  concentration at which EGFR is effectively degraded (as low as): 10 nM
EGFR [1]; U87 cells, 500 nM, 24 h
  EGFR expression (protein electrophoresis): obvious decreases in EGFR expression
EGFP-labeled fused EGFR
  green fluorescence signal of EGFP-labeled fused EGFR: gradually decreases over time
[4]
  particle size (dynamic light scattering): about 150 nm
HepG2 cells
  cell proliferation (CCK8 cell viability): significantly inhibited
Human glioma in situ
  EGFR in brain tumor (immunohistochemistry): stronger than the ANG/NTZ-NP group
  proliferation marker PCNA in brain tumor (immunohistochemistry): stronger than the ANG/NTZ-NP group

## ANG/NTZ-NP: NTZ-PEG-DSPE plus 20% Angiopep2-PEG-DSPE self-assembled with PLGA
Human glioma in situ
  EGFR in brain tumor (immunohistochemistry): solvent PBS control group and the NTZ-NP group are stronger than the ANG/NTZ-NP group
  proliferation marker PCNA in brain tumor (immunohistochemistry): solvent PBS control group and the NTZ-NP group are stronger than the ANG/NTZ-NP group

## NTZ-lipoP: NTZ-PEG-DSPE on HSPC/cholesterol lipid membrane wrapping PLGA nanoparticles
[4]
  SIZE (DLS particle size): 257 ± 7.0

## CNc1ccc(/C=C/c2ccc(OCCOCCOCCF)nc2)cc1 [AV45, AV-45]
β-amyloid 1-42 oligomer
  AV45 autofluorescence in cells (cell internalization): very weak

B1: CRLZ-NP: Camrelizumab (CRLZ), PEG-DSPE linker, PLGA nanoparticle (conjugate, chains of the INN, looked up)
VH: EVQLVESGGGLVQPGGSLRLSCAASGFTFSSYMMSWVRQAPGKGLEWVATISGGGANTYYPDSVKGRFTISRDNAKNSLYLQMNSLRAEDTAVYYCARQLYYFDYWGQGTTVTVSS
VL: DIQMTQSPSSLSASVGDRVTITCLASQTIGTWLTWYQQKPGKAPKLLIYTATSLADGVPSRFSGSGSGTDFTLTISSLQPEDFATYYCQQVYSIPWTFGGGTKVEIK
modifications: PEG-DSPE PLGA nanoparticle
PD-1 receptor protein
  expression of PD-1 receptor protein: obviously reduced
